Experimental findings from patent US20100143379A1 (priority 2005, published 2010) are described below.

For experiment [1], the system named is Src. Briefly: Tyrosine kinase phosphorylation in COS-7/M6 transformants and MEFs (immunoblot). Particulars: COS-7 transformants and MEFs. In kind it is cell-based. The text has this: Two members of the non-receptor, protein tyrosine kinase family, p56^lck and c-Src (Src), may physically associate with the intracytoplasmic domain of CD44 (Elaimin I. Taher (1996). J. Biol. Chem. 271:2863-2867 and Bourguignon et al. (2001). J. Biol. Chem. 276:7327-7336), and either kinase may lead to downstream ERK1/2 phosphorylation via a Ras-Raf-MEK-dependent pathway (Ishida et al. (1998). Circ Res 82:7-12; Migliaccio et al. (2000). EMBO J. 19:5406-5417; and Mahabeleshwar et al. (2003). J. Biol. Chem. 278:52598-52612). […] The level of p56^lck phosphorylation appeared less in the MEFs than in the COS-7 cells, which may be attributed to the lower level of expression of the p56^lck kinase in cells of fibroblast lineage (Oikawa et al. (2001). Immunol. 104:162-167), or to a higher activation and coupling efficiency of CD44 when over-expressed in COS-7 cells.
Signal Transduction Assays. […] The human CD74 ectodomain (CD74^73-232) was prepared recombinantly in soluble form (sCD74) as described previously (Leng et al. (2003). J Exp Med 197:1467-1476). […] Cells then were harvested and lysed in buffer containing 50 mM Hepes, pH7.5, 150 mM NaCl, 1.5 mM MgCl2, 1 mM EGTA, 1% Glycerol and 1% Triton X-100, and freshly added phosphatase and proteinase inhibitors (1 mM orthovanandate, 10 mM NaF, 10 μg/ml leupeptin, 25 μg/ml aprotinin and 50 μg/ml PMSF). […]
(In general: In western blotting, separated proteins are transferred to a membrane and probed.)

Experiment [2] deals with p38. The experiment is described as follows: MAP kinase phosphorylation in differentiating K562 progenitors (Western blot). In kind it is cell-based, human. Particulars: 16 hrs, p<0.01; 96 hrs, p<0.04. As to the method:
(§1) MIF addition markedly affected these differentiation-associated, MAP kinase responses.
(§2) Western Blot Analysis. Immunoblotting with antibodies directed against phospho-ERK1/2, total ERK1/2, phospho-JNK1/2, total JNK1/2, phospho-p38, and total p38 was performed according to the manufacturer's instructions (New England Biolabs, Beverly, Mass.). The secondary antibody was an anti-rabbit IgG conjugated to horseradish peroxidase and detection was by chemiluminescence according to the manufacture's instructions (Amersham Pharmacia Biotech, Piscataway, N.J.). For quantitation of signal intensity of phospho-specific kinase results, western blots were scanned using a UMAX, PowerLook IIII scanner and the images were analyzed using UN-SCAN-IT gel Automated Digitizing system software version 5.1 (Silk Scientific Corporation, USA). The ratio between phosphorylated to the total MAP kinase was determined and expressed as a fold-change for each lane (mean±S.E.M for three blots from independent cell cultures). The p values were calculated for each of the time course comparisons (4, 16, 96 hrs) of three different experiments (Student T-test, two-tailed).

Experiment [3] concerns JNK-1/2. The experiment is described as above. In kind it is cell-based, human. Particulars: vs differentiation medium alone; did not reach statistical significance (96 hrs, p<0.06). As to the method:
as §1, §2

Experiment [4] deals with ERK-1/2. The experiment is described as above. In kind it is cell-based, human. Particulars: K562 in differentiation medium. As to the method:
as §1, §2

Experiment [5] has as its system Friend murine erythroleukemia (MEL) cell line. The experiment is described as follows: MEL cell cytodifferentiation and hemoglobin content. In kind it is cell-based. As to the method:
The specificity of this effect was verified by the application of a neutralizing, anti-MIF mAb.
Erythroid Progenitor Cell Lines. The Friend murine erythroleukemia (MEL) cell line was cultured in Dulbecco's modified Eagle's medium supplemented with 10% FBS. Differentiation was induced with dimethyl sulfoxide differentiation medium for 4 days as described (Terada et al. 1977. Proc. Natl. Acad. Sci. USA 74:248-252). Hemoglobin synthesis was assessed by cyto-centrifugation onto glass slides followed by staining with benzidine (Worthington), and by the hemoglobin kit from Sigma.

The test system of experiment [6] is murine bone marrow progenitor cultures. The experiment is described as follows: BFU-E and CFU-E erythropoietin-dependent progenitor colony assays. In kind it is cell-based. Particulars: 10-100 ng/ml MIF, 1-20 ng/ml TNFα, or 10-100 U/ml IFNγ. As to the method:
Bone marrow cells were harvested, plated in a methylcellulose-based medium, and colony numbers scored after the addition of murine cytokines. Individual assays were performed in duplicate, and the data shown is a compilation of 3-6 independently performed experiments. % inhibition of colony formation is calculated with reference to a cytokine-minus control. All values shown are the mean±SD and are significant when compared to wells with no cytokine addition (P<0.05). CFU-E: colony forming unit—erythroid; BFU-E: burst-forming unit—erythroid.
The two inflammatory cytokines, TNFα and IFNγ, were also studied. TNFα and IFNγ are produced as a consequence of macrophage and T cell activation (McDevitt et al. 2004. Curr Hematol Rep 3:97-106). The appearance of BFU-E and CFU-E were quantified after culture with these cytokines, applied either alone or in combination.
BFU-E and CFU-E Progenitor Cell Assays. The progenitor cell (colony) assays were performed according to the standardized methods described previously (Martiney et al. 2000. Infection and Immunity 68:2259-2267) and protocols from StemCell Technologies (Vancouver; BC, Canada). Briefly, washed murine bone marrow cells were plated in sterile 35-mm dishes containing a methylcellulose-based medium and growth factors. The total number of bone marrow cells plated in duplicate culture dishes were as follows: 2×10^5 for CFU-E and 5×10^5 for BFU-E. MethoCult™ M3334 was utilized for the CFU-E and BFU-E colony assays. The media for CFU-E and BFU-E was volume adjusted by adding 1 part Isocove's MDM to 9 parts MethoCult™ M3334 to give final concentrations of the following components: 15% fetal bovine serum, 1% BSA, […] transferrin, […] insulin, 1% methylcellulose, 10^−4 M 2-mercaptoethanol, 2 mM L-glutamine and 3 units/ml erythropoietin. Each assay of different bone marrow progenitor cells was performed independently 3-6 times.

B1: MIF: macrophage migration inhibitory factor; recombinant mouse or human MIF purified essentially free of endotoxin (protein)
chain: PMFIVNTNVPRASVPDGFLSELTQQLAQATGKPPQYIAVHVVPDQLMAFGGSSEPCALCSLHSIGKIGGAQNRSYSKLLCGLLAERLRISPDRVYINYYDMNAANVGWNNSTFA
Turning to B1, the Src phosphorylation result in experiment [1] is “An increase in the phosphorylation of the Src kinase was not detected”. Further, the “differentiation-associated changes in p38 MAP kinase phosphorylation” value in experiment [2] is “reduced”. Moreover, the JNK-1/2 phosphorylation entry in experiment [3] was “appeared to upregulate JNK-1/2 phosphorylation”. Besides, the “duration of ERK-1/2 phosphorylation” value in experiment [4] is “at least 96 hrs”. Moreover, the ERK-1/2 phosphorylation result in experiment [4] (16 hrs) was “phosphorylation was high at 16 hrs”. Besides, the figures for the “reduction of hemoglobin content” value in experiment [5] (20 ng/ml) and in experiment [5] (100 ng/ml) were 12% and 20%, respectively. The “cytodifferentiation response (benzidine staining)” value in experiment [5] (200 ng/ml) is “decreased the cytodifferentiation response”. In experiment [6], the “BFU-E and CFU-E colony formation” value is “dose-dependently inhibited”.
